Source: publication PMC10696660

Target: AqpZ (UniProt P60844)
Experiment: native MS

- stoichiometry N: 4
Substance: AqpZ (from UniProt P60844 1-231) (natural protein)
